In publication PMC11213338:

Experiments:
[1] = target: BSMV virions; assay: immunogold labeling with γb antibody, TEM; conditions: virions purified from infected N. benthamiana leaves at 5 dpi; n = 13; parent: est. 48; read off a plot
[2] = target: γb protein of BSMV, expressed by the virus; assay: immunogold labeling with γb antibody, TEM; conditions: virions purified from infected N. benthamiana leaves at 5 dpi; n = 13; parent: est. 48; read off a plot
[3] = target: CP-His (UniProt P04866); assay: GST pull-down; conditions: scale: relative anti-His band intensity
[4] = target: BSMV virions (barley stripe mosaic virus (ND18 strain)); assay: immunogold labelling of purified virions (TEM); virions purified from infected leaves, adsorbed onto nickel grids, rabbit antiserum against the CRP 1:100 in BL buffer 2 h at room temperature, goat anti-rabbit 10 nm gold, TEM at 80 kV; also after 0.02 mM EDTA at 4°C for 12 h (fewer gold particles)
[5] = target: GST-γb; assay: GST pull-down; conditions: scale: relative anti-His band intensity
[6] = target: γb-GFP-His (barley stripe mosaic virus (ND18 strain)); assay: MST; γb protein with 5 μM Zn^2+ in the buffer held constant, CP protein added as ligand; Monolith NT.115
[7] = target: γb-GFP-His (barley stripe mosaic virus (ND18 strain)); assay: MST; γb-GFP-His held constant (10 μM), CP-His titrated from 20 μM; PBS with 0.1% Tween 20, 25°C, 20% LED-power, 40% MST-power, Monolith NT.115; no Zn^2+ added
[8] = target: γb-GFP-His (barley stripe mosaic virus (ND18 strain)); assay: as above; remark: listed apart in the source
[9] = target: GST-γb (barley stripe mosaic virus (ND18 strain)); assay: pull-down; GST pull-down: purified GST-tag protein with His-tag protein in 50 mM Tris-HCl pH 6.8, 500 mM NaCl, 1.5% glycerol, 0.6% Triton-X 100, 0.1% Tween 20, 3 h at 4°C; with or without 10 μg RNaseA, Zn^2+ 2-200 μM, 20 μM other divalent cations, or EDTA (200 μM in Fig 4D and 4E); blots with anti-GST or anti-His

Question: “γb protein of BSMV, expressed by the virus H85A” was tested. Which response [1] did it give?
Answer: 8%

Question: For BSMV virions H13A, which response [2] is on record?
Answer: 3%

Question: GST-γb H85A was tested. Which response ([3]; EDTA (200 μM), parent: 0.20) did it give?
Answer: 0.23

Question: And the response ([3]; no EDTA, parent: 1.00)?
Answer: 0.21

Question: Which percent of virions labelled with gold particles (γb antibody) [4] does the source give for “γb protein of BSMV, expressed by the virus (natural protein)” here?
Answer: 50.9%

Question: For CP-His (from UniProt P04866) H13A, which response ([5]; EDTA (200 μM), parent: 0.05) is on record?
Answer: 0.04

Question: And the response ([5]; no EDTA, parent: 1.00)?
Answer: 0.11

B1: CP-His (natural protein)
chain: MPNVSLTAKGGGHYIEDQWDTQVVEAGVFDDWWVHVEAWNKFLDNLRGINFSVASSRSQVAEYLAALDRDLPADVDRRFAGARGQIGSPNYLPAPKFFRLDKRTIAELTRLSRLTDQPHNNRDIELNRAKRATTNPSPPAQAPSENLTLRDVQPLKDSALHYQYVLIDLQSARLPVYTRKTFERELALEWIIPDAEEA
Question: How did the Kd [6] turn out when B1 was run?
Answer: 150 nM

Question: What about the Kd [7] of the same molecule?
Answer: 460 nM

Question: What about the Kd [8] of the same molecule?
Answer: 630 nM

Question: What about the fold reduction of the pull-down with 200 μM EDTA [9] of the same molecule?
Answer: 5 fold
